# Source: patent US20190194347A1, “ANTIBODIES FOR EPIDERMAL GROWTH FACTOR RECEPTOR 3 (HER3)” (NOVARTIS AG, priority 2010, published 2019)
# Positions count from the first letter of the chain named.
# B1: MOR09823 (antibody, V domains shown)
# VH: QVQLVESGGGLVQPGGSLRLSCAASGFTFSSYAMSWVRQAPGKGLEWVSVTGAVGRTYYPDSVKGRFTISRDNSKNTLYLQMNSLRAEDTAVYYCARWGDEGFDIWGQGTLVTVSS
# VL: DIQMTQSPSSLSASVGDRVTITCRASQGISNWLAWYQQKPGKAPKLLIYGASSLQSGVPSRFSGSGSGTDFTLTISSLQPEDFAVYYCQQYSSFPTTFGQGTKVEIKR
# B2: MOR10702 (antibody, human IgG1, kappa, V domains shown)
# VH: EVQLLESGGGLVQPGGSLRLSCAASGFTFSSYAMSWVRQAPGKGLEWVSVISAWGHVKYYADSVKGRFTISRDNSKNTLYLQMNSLRAEDTAVYYCARWGDEGFDIWGQGTLVTVSS
# VL: B1 VL with V85T
# B3: MOR09825 (antibody, human IgG1, kappa, V domains shown)
# VH: B2 VH with E1Q, L5V, V50A, S52N, A53S, W54Q, H56K, V57S, K58T
# VL: B1 VL
# B4: MOR10703 (antibody, human IgG1, kappa, V domains shown)
# VH: B2 VH with V50A, S52N, A53S, W54Q, H56K, V57S, K58T
# VL: B1 VL with V85T
# B5: MOR09824 (antibody, human IgG1, kappa, V domains shown)
# VH: B2 VH with E1Q, L5V
# VL: B1 VL
# B6: MOR10701 (antibody, human IgG1, kappa, V domains shown)
# VH: B2 VH with I51T, S52G, W54V, H56R, V57S, K58T, A61P
# VL: B1 VL with V85T
# B7: MOR09974 (antibody, human IgG1, kappa, V domains shown)
# VH: B2 VH with E1Q, L5V, S52N, A53P, W54S, H56N, V57F, K58T, Y59N
# VL: B1 VL
# Target: endogenous human HER3 on human cancer cells (SK-Br-3, MCF7, BT-474) (human, UniProt P21860 20-1342)
# Assay: cell-based or functional assay
Binder,"% inhibition of proliferation, BT-474, 10 µg/ml IgG","% inhibition of proliferation, MCF7 (neuregulin stimulated), 10 µg/ml IgG","% inhibition of proliferation, SK-Br-3, 10 µg/ml IgG"
B1,39.8%,82%,39%
B2,43.8%,–,–
B3,37.2%,63%,41%
B4,41.6%,81%,35%
B5,36.8%,82%,33%
B6,43.6%,–,–
B7,–,20%,35%

# Target: T1, HER3 K267A (CD33-[Human HER3, residues 20-640, K267A]-TAG) (human, UniProt P21860 20-640)
# T1 construct: also called HER3 K267A-Tag; not shown: C-terminal TAG (e.g., FLAG TAG)
# Assay: ELISA titration on coated recombinant mutant HER3
row,Binder,binding result
1,B4,no binding (tested: up to 10 µg/mL antibody (Example 7))

# Target: T2, HER3 L268A (CD33-[Human HER3, residues 20-640, L268A]-TAG) (human, UniProt P21860 20-640)
# T2 construct: also called HER3 L268A-Tag; not shown: C-terminal TAG (e.g., FLAG TAG)
# Assay: ELISA titration on coated recombinant mutant HER3
row,Binder,binding result
1,B4,no binding (tested: up to 10 µg/mL antibody (Example 7))
